Drawing on article PMC9958104, “Arabidopsis histone H3 lysine 9 methyltransferases KYP/SUVH5/6 are involved in leaf development by interacting with AS1-AS2 to repress KNAT1 and KNAT2” (Communications Biology, 2023), this text covers Kd for two molecules.

The chains are these.
B2: maltose-binding protein (MBP) fused AS1 (MBP-AS1) (natural protein, Arabidopsis thaliana, UniProt O80931 1-367, looked up)
chain: MKERQRWSGEEDALLRAYVRQFGPREWHLVSERMNKPLNRDAKSCLERWKNYLKPGIKKGSLTEEEQRLVIRLQEKHGNKWKKIAAEVPGRTAKRLGKWWEVFKEKQQREEKESNKRVEPIDESKYDRILESFAEKLVKERSNVVPAAAAAATVVMANSNGGFLHSEQQVQPPNPVIPPWLATSNNGNNVVARPPSVTLTLSPSTVAAAAPQPPIPWLQQQQPERAENGPGGLVLGSMMPSCSGSSESVFLSELVECCRELEEGHRAWADHKKEAAWRLRRLELQLESEKTCRQREKMEEIEAKMKALREEQKNAMEKIEGEYREQLVGLRRDAEAKDQKLADQWTSRHIRLTKFLEQQMGCRLDRP
notes: source: E. coli BL21(DE3), recombinant protein

Test [1] addresses T1, MBP-KYP recombinant protein (Arabidopsis thaliana, UniProt Q8GZB6 1-624).
T1 construct: KRYPTONITE (KYP/SUVH4), Arabidopsis thaliana; KYP CDS cloned into the pMAL-c5v vector; The purification is not described; source: E. coli BL21(DE3), recombinant protein
T1 sequence (looked up): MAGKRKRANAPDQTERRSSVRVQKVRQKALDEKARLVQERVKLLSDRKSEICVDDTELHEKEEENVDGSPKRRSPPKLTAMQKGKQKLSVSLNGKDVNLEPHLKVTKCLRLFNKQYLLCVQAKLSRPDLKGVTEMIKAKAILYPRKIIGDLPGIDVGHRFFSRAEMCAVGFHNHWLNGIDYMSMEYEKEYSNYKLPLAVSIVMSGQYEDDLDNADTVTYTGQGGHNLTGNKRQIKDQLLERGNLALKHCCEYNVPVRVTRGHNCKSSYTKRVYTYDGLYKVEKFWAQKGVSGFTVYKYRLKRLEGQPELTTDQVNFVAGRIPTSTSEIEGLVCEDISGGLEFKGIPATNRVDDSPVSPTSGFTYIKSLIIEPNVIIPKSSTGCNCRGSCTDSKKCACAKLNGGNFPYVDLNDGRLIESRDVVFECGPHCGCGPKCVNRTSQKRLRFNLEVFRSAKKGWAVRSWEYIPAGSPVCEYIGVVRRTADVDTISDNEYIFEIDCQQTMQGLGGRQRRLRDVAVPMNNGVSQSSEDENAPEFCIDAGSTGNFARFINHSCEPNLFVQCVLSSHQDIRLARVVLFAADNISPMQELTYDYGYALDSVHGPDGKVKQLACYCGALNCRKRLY
Nature of the test: quartz crystal microbalance (QCM); AffinixQN QCM biosensor; first protein immobilised on the Au electrode until saturation (AS1 for the AS1-KYP pair), second protein injected repeatedly; 50 mM Tris-HCl, 150 mM NaCl, 1 mM DTT, 25 °C; Langmuir equation; three replicates. Particulars: both partners purified.

The target in test [2] is B2. Described as above. The conditions noted are these: both partners purified.

By Kd is commonly meant a measure of binding affinity in units of concentration.

B1: maltose-binding protein (MBP) fused AS2 (MBP-AS2) (natural protein, Arabidopsis thaliana, UniProt O04479 1-199, looked up)
chain: MASSSTNSPCAACKFLRRKCQPECVFAPYFPPDQPQKFANVHKVFGASNVTKLLNELHPSQREDAVNSLAYEADMRLRDPVYGCVGVISLLQHQLRQLQIDLSCAKSELSKYQSLGILAATHQSLGINLLAGAADGTATAVRDHYHHHQFFPREQMFGGLDVPAGNNYDGGILAIGQITQFQQPRAAAGDDGRRTVDPS
notes: as for B2
As to B1, the Kd in test [1] worked out at 18.6 µM; in test [2], 25.3 µM. Turning to B2, the Kd in test [1] is 33.6 µM.
